T1: PUF4 RNA-binding domain (Saccharomyces cerevisiae, UniProt P25339 537-888)
T1 sequence: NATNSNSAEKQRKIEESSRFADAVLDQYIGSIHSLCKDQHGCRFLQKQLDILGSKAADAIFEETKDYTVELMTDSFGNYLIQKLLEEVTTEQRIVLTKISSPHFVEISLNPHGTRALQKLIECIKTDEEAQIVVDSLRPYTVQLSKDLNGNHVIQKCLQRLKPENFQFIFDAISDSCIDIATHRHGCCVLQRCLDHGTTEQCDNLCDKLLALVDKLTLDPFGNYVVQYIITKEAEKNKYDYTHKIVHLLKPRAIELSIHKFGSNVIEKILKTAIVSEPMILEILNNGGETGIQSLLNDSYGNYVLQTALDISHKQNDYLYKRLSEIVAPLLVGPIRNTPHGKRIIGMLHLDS

B1: Ic_S4_P5E.1_K5.1_C5.1_H5.1_A5.1_[T5C]_[T6C]_F5.1_[T8A]_[T9A]_[A10C]_T5.1 (ssRNA)
RNA: UUUGACAACUGAUCGUUCUUUCUUGUACCAAACUUCUUUCUCGAUCAGUUGUCUUU
B2: Ic_S4_P5E.1_K5.1_C5.1_H5.1_A5.1_[T5A]_[T6A]_[A7T]_F5.1_[T8A]_[T9A]_[A10C]_T5.1 (ssRNA)
RNA: B1 RNA with C28A, C29A, A30U
B3: Ic_S4_P5E.1_K5.1_C5.1_H5.1_A5.1_[T5C]_[T6C]_[A7C]_F5.1_[T8G]_[T9C]_[A10C]_T5.1 (ssRNA)
RNA: B1 RNA with A30C, A31G, A32C
B4: Ic_S4_P5E.1_K5.1_C5.1_H5.1_A5.1_[T5A]_[T6C]_[A7T]_F5.1_[T8G]_[T9C]_[A10T]_T5.1 (ssRNA)
RNA: B1 RNA with C28A, A30U, A31G, A32C, C33U
B5: Ic_S4_P5E.1_K5.1_C5.1_H5.1_A5.1_[T5G]_[T6C]_[A7T]_F5.1_[T8A]_[A10T]_T5.1 (ssRNA)
RNA: B1 RNA with C28G, A30U, A32U, C33U
B6: Ic_S4_P5E.1_K5.1_C5.1_H5.1_A5.1_[T5A]_[T6C]_[A7C]_F5.1_[T9C]_[A10G]_T5.1 (ssRNA)
RNA: B1 RNA with C28A, A30C, A31U, A32C, C33G
B7: Ic_S4_P5E.1_K5.1_C5.1_H5.1_A5.1_[T6A]_[A7C]_F5.1_[T8C]_[T9C]_[A10T]_T5.1 (ssRNA)
RNA: B1 RNA with C28U, C29A, A30C, A31C, A32C, C33U
B8: Ic_S4_P5E.1_K5.1_C5.1_H5.1_A5.1_[T5A]_[T6A]_[A7C]_F5.1_[T9A]_[A10T]_T5.1 (ssRNA)
RNA: B1 RNA with C28A, C29A, A30C, A31U, C33U
B9: Ic_S4_P5E.1_K5.1_C5.1_H5.1_A5.1_[T5C]_[T6G]_[A7C]_F5.1_[T8G]_[A10C]_T5.1 (ssRNA)
RNA: B1 RNA with C29G, A30C, A31G, A32U
B10: Ic_S4_P5E.1_K5.1_C5.1_H5.1_A5.1_[T5C]_[T6A]_[A7C]_F5.1_[T9C]_[A10C]_T5.1 (ssRNA)
RNA: B1 RNA with C29A, A30C, A31U, A32C
B11: Ic_S4_P5E.1_K5.1_C5.1_H5.1_A5.1_[T5A]_[T6A]_[A7T]_F5.1_[A10T]_T5.1 (ssRNA)
RNA: B1 RNA with C28A, C29A, A30U, A31U, A32U, C33U
B12: Ic_S4_P5E.1_K5.1_C5.1_H5.1_A5.1_[T6G]_[A7C]_F5.1_[T8A]_T5.1 (ssRNA)
RNA: B1 RNA with C28U, C29G, A30C, A32U, C33A
B13: Ic_S4_P5E.1_K5.1_C5.1_H5.1_A5.1_[T5C]_[T6C]_[A7C]_F5.1_[T8G]_[T9C]_[A10G]_T5.1 (ssRNA)
RNA: B1 RNA with A30C, A31G, A32C, C33G
B14: Ic_S4_P5E.1_K5.1_C5.1_H5.1_A5.1_[T5A]_[T6C]_[A7T]_F5.1_[T8C]_[T9A]_[A10T]_T5.1 (ssRNA)
RNA: B1 RNA with C28A, A30U, A31C, C33U
B15: Ic_S4_P5E.1_K5.1_C5.1_H5.1_A5.1_[A7T]_F5.1_[T8G]_[T9C]_[A10T]_T5.1 (ssRNA)
RNA: B1 RNA with C28U, C29U, A30U, A31G, A32C, C33U
B16: Ic_S4_P5E.1_K5.1_C5.1_H5.1_A5.1_[T5C]_[T6C]_[A7G]_F5.1_[T8G]_[T9C]_[A10C]_T5.1 (ssRNA)
RNA: B1 RNA with A30G, A31G, A32C
B17: Ic_S4_P5E.1_K5.1_C5.1_H5.1_A5.1_[T5C]_[A7T]_F5.1_[T8C]_[T9G]_[A10T]_T5.1 (ssRNA)
RNA: B1 RNA with C29U, A30U, A31C, A32G, C33U
B18: Ic_S4_P5E.1_K5.1_C5.1_H5.1_A5.1_[T5A]_F5.1_[T8A]_[A10T]_T5.1 (ssRNA)
RNA: B1 RNA with C28A, C29U, A32U, C33U
B19: Ic_S4_P5E.1_K5.1_C5.1_H5.1_A5.1_[A7T]_F5.1_[T8G]_[T9C]_[A10C]_T5.1 (ssRNA)
RNA: B1 RNA with C28U, C29U, A30U, A31G, A32C
B20: Ic_S4_P5E.1_K5.1_C5.1_H5.1_A5.1_[T5C]_[A7G]_F5.1_[T8C]_[T9G]_[A10C]_T5.1 (ssRNA)
RNA: B1 RNA with C29U, A30G, A31C, A32G

Numbering of substitutions follows the chain as printed. Names may count otherwise.

This data set concerns the target T1, PUF4 RNA-binding domain. As to the kind of experiment: Mg; RNA-MaP; 20 mM Na-HEPES pH 7.4, 30 mM KOAc, 0.75 mM MgCl2, 0.1% Tween-20, 5% glycerol, 0.1 mg/mL BSA, 2 mM DTT; 25 C; 0.0125-409.6 nM protein. The note with it: tags: N-His6-TEV cleaved; C-SNAP kept, Cy3B-labelled; label: tethered on chip by stalled RNA polymerase.
As usually defined, the Kd is the equilibrium constant for the complex coming apart. Read a high Kd as weaker binding. As to UCUCUUUGUAUCUUCUCUCUU (ssRNA) [Ib_S1_P4E.1_K4.1_C4.1_H4.1_A4.1_[A6C]_F4.1_[A9C]_T4.1], the affinity, expressed as Kd, was 92.5 nM. The result for UCUCUUUGUAUUUUCUCUCUU (ssRNA) [Ic_S1_P4E.1_K4.1_C4.1_H4.1_A4.1_[A6T]_F4.1_[A9C]_T4.1] reads 36 nM; that for UCUCUUUGUACAUUAUCUCUU (ssRNA) [Ic_S1_P4E.1_K4.1_C4.1_H4.1_A4.1_[T5C]_F4.1_T4.1], 0.601 nM; that for B1, 158 nM. As for B2, the figure is 26.6 nM; as for B3, 985 nM. The result for B4 reads 304 nM; that for B5, 56.6 nM.

As for B6, the Kd is 610 nM.

Take B7: binding was characterised by a dissociation constant (Kd) of 36.1 nM. B8: the Kd was 2.41 nM. The molecule B9 returned a Kd of more than 2300 nM. B10 yielded a Kd of 6.67 nM. That is a single-digit nanomolar value.

As for B11, the Kd worked out at 16.9 nM. For the molecule B12, the Kd came to 14.1 nM.

The molecule B13 registered a Kd of 1670 nM. Turning to B14, binding was characterised by a dissociation constant (Kd) of 325 nM. Compared with the last molecule, the Kd is about 5.1-fold lower. In turn, B15 returned a Kd of 80.4 nM. B16: the Kd was more than 2300 nM.

B17: the Kd is 199 nM. This counts as sub-micromolar. The result for B18 reads 95.2 nM; that for B19, 101 nM; that for B20, 1350 nM.
